Among the data in article doi:10.1101/2021.11.29.470362 (bioRxiv, 2021) are Kd values, retold here.

This assay has as its target SARS-CoV-2 S-protein extracellular domain (ECD) (SARS-CoV-2, Wuhan-Hu-1 (ancestral), biotin, site-specific (BirA reaction) on the AviTag). Kind of assay: BLI. On the technique in general: In BLI a coated tip is dipped into the sample, and binding shifts an interference pattern.

B1: IgG 15033 (antibody, V domains shown)
VH: EVQLVESGGGLVQPGGSLRLSCAASGFDLGGYSMHWVRQAPGKGLEWVAGIYASGGATAYADSVKGRFTISADTSKNTAYLQMNSLRAEDTAVYYCARSYYYGGFGMDYWGQGTLVTVSS
VL: DIQMTQSPSSLSASVGDRVTITCRASQSVSSAVAWYQQKPGKAPKLLIYSASDLYSGVPSRFSGSRSGTDFTLTISSLQPEDFATYYCQQSYRYPITFGQGTKVEIK
B1 came in with a Kd of 0.1 nM.

B2: peptide-IgG 33^LN1 (peptide N1 fused to the N-terminus of the LC of IgG 15033) (antibody, V domains shown)
VH: EVQLVESGGGLVQPGGSLRLSCAASGFDLGGYSMHWVRQAPGKGLEWVAGIYASGGATAYADSVKGRFTISADTSKNTAYLQMNSLRAEDTAVYYCARSYYYGGFGMDYWGQGTLVTVSS
VL: DIQMTQSPSSLSASVGDRVTITCRASQSVSSAVAWYQQKPGKAPKLLIYSASDLYSGVPSRFSGSRSGTDFTLTISSLQPEDFATYYCQQSYRYPITFGQGTKVEIK
In turn, B2 had a dissociation constant Kd of under 0.001 nM.

B3: peptide-IgG 33^HR1 (peptide R1 fused to the N-terminus of the HC of IgG 15033) (antibody, V domains shown)
VH: EVQLVESGGGLVQPGGSLRLSCAASGFDLGGYSMHWVRQAPGKGLEWVAGIYASGGATAYADSVKGRFTISADTSKNTAYLQMNSLRAEDTAVYYCARSYYYGGFGMDYWGQGTLVTVSS
VL: DIQMTQSPSSLSASVGDRVTITCRASQSVSSAVAWYQQKPGKAPKLLIYSASDLYSGVPSRFSGSRSGTDFTLTISSLQPEDFATYYCQQSYRYPITFGQGTKVEIK
In the case of B3, the Kd was under 0.001 nM.

In general, Kd refers to the free concentration of one partner at which half of the binding sites on the other are occupied at equilibrium, for simple one-to-one binding. A lower Kd goes with tighter binding.
